Results reported in PMC7531512.

Target: biotinylated human neonatal Fc receptor (FcRn) (human) (UniProt P55899)
Assay: BLI

Substance | Kd
AlbuCORE_9 scaffold (split human serum albumin, split site 281-282) (complex) | 1.25 µM
AlbuCORE_7 scaffold (split human serum albumin, split site 171-172) (complex) | 1.65 µM
AlbuCORE_6 scaffold (split human serum albumin, deletion of residue 84) (complex) | 1.6 µM

Now those with a lower Kd, led by results:

Kd | Substance
0.98 µM | AlbuCORE_4 scaffold (split human serum albumin, split site 441-442) (complex)
0.76 µM | AlbuCORE_3 scaffold (split human serum albumin, split site 364-365) (complex)
0.58 µM | AlbuCORE_2 scaffold (split human serum albumin, split site 300-301) (complex)
0.19 µM | AlbuCORE_1 scaffold (split human serum albumin, split site 339-340) (complex)
